T1: Aquifex FlhBC (C-terminal cytoplasmic domain of Aquifex aeolicus FlhB) (Aquifex aeolicus, UniProt O67813 213-350)
T1 construct: FlhB of Aquifex aeolicus, cytoplasmic domain FlhBC; also called AquFlhBC; source: purified as described previously [14]
T1 sequence (looked up): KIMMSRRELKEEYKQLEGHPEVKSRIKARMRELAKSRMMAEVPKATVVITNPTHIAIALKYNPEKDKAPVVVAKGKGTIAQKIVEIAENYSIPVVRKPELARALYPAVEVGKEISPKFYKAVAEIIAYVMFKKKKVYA


Columns and labels:
[1] = molecular target: T1, Aquifex FlhBC (C-terminal cytoplasmic …); experiment: SPR; Biacore T100; AquFlhBC or FliC amine-coupled to a CM5 chip; FliS or FliS A22T flowed at 30 µl/min for 12 min; 10 mM HEPES pH 7.4, 150 mM NaCl, 0.05% (v/v) Surfactant P20; 25°C; steady-state analysis, 1:1 binding model; settings: both partners purified
[2] = molecular target: T2, Salmonella FliC (flagellin) (Salmonella enterica serovar Typhimurium, UniProt P06179 1-495); experiment: as above; settings: both partners purified
T2 construct: FliC (flagellin), major component of the flagellar filament, Salmonella enterica serovar Typhimurium
T2 sequence (P06179 whole entry): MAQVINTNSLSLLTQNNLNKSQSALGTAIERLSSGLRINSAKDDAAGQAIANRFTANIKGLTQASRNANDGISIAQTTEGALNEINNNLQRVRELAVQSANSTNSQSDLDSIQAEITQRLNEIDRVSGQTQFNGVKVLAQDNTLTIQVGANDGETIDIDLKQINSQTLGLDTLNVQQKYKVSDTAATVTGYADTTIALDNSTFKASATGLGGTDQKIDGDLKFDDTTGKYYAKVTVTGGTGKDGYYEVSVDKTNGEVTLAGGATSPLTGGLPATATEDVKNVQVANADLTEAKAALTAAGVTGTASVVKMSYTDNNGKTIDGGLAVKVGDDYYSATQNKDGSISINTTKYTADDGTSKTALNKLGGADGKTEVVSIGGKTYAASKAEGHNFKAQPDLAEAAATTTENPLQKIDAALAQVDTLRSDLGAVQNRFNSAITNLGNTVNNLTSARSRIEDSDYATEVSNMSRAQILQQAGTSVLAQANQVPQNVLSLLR

Binder | Kd [1] [µM] | Kd [2] [µM]
Salmonella FliS (wild type) (natural protein, FliS, flagellin-specific chaperone of Salmonella enterica serovar Typhimurium; also called wild-type FliS) MYTASGIKAYAQVSVESAVMSASPHQLIEMLFDGANSALVRARLFLEQGDVVAKGEALSKAINIIDNGLKAGLDQEKGGEIATNLSELYDYMIRRLLQANLRNDAQAIEEVEGLLSNIAEAWKQISPKASFQESR | 169 | 0.7
Salmonella FliS A22T (natural protein, FliS of Salmonella enterica serovar Typhimurium with the point mutation A22T; The mutation arose as a spontaneous extragenic suppressor in the laboratory strain CB351; expression and purification of the protein are not described; also called FliS mutant A22T; fliS22264(A22T)) MYTASGIKAYAQVSVESAVMSTSPHQLIEMLFDGANSALVRARLFLEQGDVVAKGEALSKAINIIDNGLKAGLDQEKGGEIATNLSELYDYMIRRLLQANLRNDAQAIEEVEGLLSNIAEAWKQISPKASFQESR | 304 | 11.9
